Experiment: soluble on expression in E. coli; label from the status in PepcDB or PDB records

Row | Sequence | soluble on expression in E. coli
1 | MSSEAVAQATAATTSPEHGVPTSSATPTPPPSKGGGAGGGGGGEQQQVPFQMIPPGHFFANPFLNPYIPTAGAPAQEGEAQPQMVFSPAQYQEVMHHYFQQMMAASGAQFPIPFPMQFQPALQQPRPSSQASSSHRSEDDNGRQTAGSVVSSNVSPNHREVRPAEDSTETSGVVQNNDELLVPTSTSSDVTIGDVIEKSDSPENSQESAGGEEKSEEKRKLSGDRTDSLIRKQMSEMEKEITRRSQNKNIKTSGLSYTAPAPPSTEKSAPKESLNQLRSSFNLPDDSTTVGPVGPSTVPQQSQQFANNSMFMANAGNFVQNAFPIGVTMTPQATFGAAPGFQMMQPHQHNLFMQQPNPTFVNNGTNPFLQTQATLPNFVQNGTAPLVPTVSAQQFTPEQLAAAFAQQQIAQSAAPTPFDSPPPSMPSTSSGPSGALAPPPPPSHPIPRRVSGNGWPEENKENGTSTSTTNGAQSVPAAAGTDDPVWVLRDSYLKKMQREQRTSEEEEMSWQEAATAAQEAAENGGGDDQEEQETDRLLNGGTTGASTKGAERRGSVDKKKNSKETMVHEPAVLIEGVLFRARYLGSTQMLCESRGSKAARMAQAQEAVARVKAPEGDVQPSTEIDLFISTEKIMVLNTDLQRISDTDVRQDILMDHALRTISYIADIGDLVVLMARRMSTSHSDESCSDGDSSGGGVRKTPKVICHVFESDEASFIAQSIGQAFQVAYVEFLRANGIDDPSYLRQIDYQEVLNSQELLGDELEMFAKKETQKEVVVPKKAGEPLGIVVVESGWGSMLPTVVLAHMNPVGPAAHSNKLNIGDQIININGISLVGLPLSAAQTQIKNMKTATAVRMTVVSTPPVVEVRIRRPDTKYQLGFSVQNGVICSLLRGGIAERGGIRVGHRIIEINGTSVVAVAHDRIVNMLATAVGEIHMKTMPTSMFRLLTGQEQPQYI | not soluble
2 | MSSEFISKVDKEARRKAANILRDKFLNLVEQLKKGEPLVMEIPMRTLSNAIYDEKRKLLLLGEKKLRRNFLDLNEAKRFMQTVLMASIIYDALVSDEYPTIRDLYYRGKHSLLLKSIEGNKIVSEENTWDEQKESDSVIVDIEVFTSLLREEMLILSKEKGKVVGNLRIRSGNDVIDLSKTGHGAYAIEPTPDLIDFIDVDAEFVLVVEKDAVFQQLHRAGFWKQYKSILITSAGQPDRATRRFVRRLNEELKLPVYILTDADPYGWYIFSVFRIGSISLSYESERLATPDAKFLGVSMGDIFGNSRKKPYLSEAERKNYIIKAKDADIKRAEEIKNYEWFKTKAWQEEINTFLQRKAKLEIEAMASKGLKFLAFQYIPEKITNKDYIA | soluble
3 | MSSERACMLCGIVQTTNEFNRDGCPNCQGIFEEAGVSTMECTSPSFEGLVGMCKPTKSWVAKWLSVDHSIAGMYAIKVDGRLPAEVVELLPHYKPRDGSGSATIWGVRCRPGKEKELIRKLLKKKFNLDRAMGKKKLKILSIFQRDNYTGRIYIEAPKQSVIEKFCNGVPDIYISQKLLIPVQELPLLLKPNLEHHHHHH | soluble
4 | MSSIEWNEKTFAKFAYLSDPRTKGELVAYVLTKANLKDNKYENTIVIENLKNNARRFIENATMPRISPDGKKIAFMRANEEKKVSEIWVADLETLSSKKILEAKNIRSLEWNEDSRKLLIVGFKRREDEDFIFEDDVPAWFDDLGFFDGEKTTFWIFDTESEEVIEEFEKPRFSSGIWHRDKIVVNVPHREIIPQYFKFWDIYIWEDGKEEKMFEKVSFYAVDSDGERILLYGKPEKKYMSEHNKLYIYDGKEVMGILDEVDRGVGQAKIKDGKVYFTLFEEGSVNLYIWDGEIKPIAKGRHWIMGFDVDEIVVYLKETATRLRELFTWDGEEKQLTDYNDPIFAKL | soluble
5 | MSSIQGYKMKEYSMPTKRYCQTLSLKNNPILIEEYRKIHSEEKAWPEIRAGIRAVGILEMEIYILGSQLFMIIETPLDFDWEIAMDKLSNLPRQAEWEKYVSKFQDCPYLSSSAEKWKLMERMFYLYED | not soluble
6 | MSSKNSLSDKIKITFQYIMPKHAISRLVGKLAAAKMGWLTTKLISMFIKAYGINMNEAKLKKASDFDTFNNFFTRELEEGARIIDNDENTICYPVDGAISQQGDIIDGQLIQAKGFNYSVTSLLGGDEKTAAPFQGGKFSCIYLAPKDYHRIHMPMAATLREMIYVPGELFSVNPLTAQNVPDLFARNERVVAIFDTEMGELAMVLVGATIVASIETTWAGTITPPAGKDIFRWQYPKDGADAITFEKGDEMGRFKLGSTVVSTFAPNMISEFATDAGPGTVTRLGEIYAALDKSASLEHHHHHH | not soluble
7 | MSSLFVVGIGPGSNDLMTPQASLAIERSEYVIGFSLYVSFIKEKFPNKIYISNGMQGEIERAKKAIELARSGHNVSIISSGDAGIYGIAGAVFEILSTLEDNMPEVSVVPGIS | soluble
